Test results: the supplement of paper PMC12764529
± gives the half width of the 95% confidence interval.

What was measured:
[1] = folding stability dG unfold from trypsin proteolysis; higher = more stable
Experimental: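 Folding stability of de novo designed mini-proteins (<80 aa, no Cys; designed by TrROS, TrMRF, ProteinMPNN and the joint model) was measured by cDNA display proteolysis with trypsin and chymotrypsin. Each protease was used at 11 concentrations in a threefold dilution series plus a no-protease condition. K50 was inferred by Bayesian fitting of sequencing counts, and dG unfold was derived against a sequence-predicted unfolded-state K50 (Tsuboyama et al. method). Sequences shown include variable-length N-terminal GS-type padding (SAGGSAGG...) inside a display construct carrying a PA tag. Rows were kept only if the AF2 dimer inter-PAE was >15, to exclude likely homo-oligomers.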

[2] = folding stability dG unfold (combined trypsin and chymotrypsin); higher = more stable
Summary of the method: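 K50 was inferred by Bayesian fitting of sequencing counts obtained after protease digestion of designed mini-proteins. Unfolding free energy was derived by comparison with a sequence-predicted unfolded-state K50 and a shared folded-state K50, for each protease or both combined. The mini-proteins were under 80 residues, had no cysteine, were carried in a PA-tagged cDNA display construct, and were kept only if AlphaFold2 dimer inter-PAE exceeded 15.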

Which “folding stability dG unfold” value [1] does the source give for “SAGGSAGGSAGMIVIETPLSEYEKLKSPDIEVLEKSEGKVVIEIKVPPEPFYDEEGKPLKSAGGSAGGSAGG [r11_828_JUSTAS]” here?
Its value is 0.804 ± 0.034 kcal/mol.

What about the “folding stability dG unfold” value [2] of the same sequence?
The value was 0.286 ± 0.13 kcal/mol.

What does the source list for “SAGGSAGGSAGMKIIVKSKEEAEKIAKEIAKKLGIEKKIKKIEIIVIPYKKTKDGKIEKISAGGSAGGSAGG [r17_237_TrROS_Hall]”?
folding stability dG unfold [1]: 0.36 ± 0.19 kcal/mol; folding stability dG unfold [2]: -0.184 ± 0.61 kcal/mol

With “SAGGSAGGSAGMPPGSIKVTVTSTAPDGTPSTTESTIPPSQVDKVKAEAAAKGWTVSFTGSAGGSAGGSAGG [r11_603_JUSTAS]” as the sequence, how does the “folding stability dG unfold” value [1] read?
Its value is 0.654 ± 0.034 kcal/mol.

What about the “folding stability dG unfold” value [2] of the same sequence?
The value was 0.245 ± 0.068 kcal/mol.

With “SAGGSAGGSAGMPPNTVVLRESLEPGRVVLTLAVVTPGSVASVEVTEEFPVVPGTGVVVGSAGGSAGGSAGG [r11_66_JUSTAS]” as the sequence, how does the “folding stability dG unfold” value [1] read?
Its value is 0.706 ± 0.038 kcal/mol.

What about the “folding stability dG unfold” value [2] of the same sequence?
Its value is 0.139 ± 0.13 kcal/mol.

Which “folding stability dG unfold” value [1] does the source give for “SAGGSAGGSAGMTISLSDLTKKGDIEKAKEEVEEIKKKNPEPKVEKVSVPPEKNEIYKLESAGGSAGGSAGG [r11_365_JUSTAS]” here?
Its value is -0.308 ± 0.22 kcal/mol.

And the “folding stability dG unfold” value [2]?
The value was less than -1 kcal/mol.

What does the source list for “SAGGSAGGSAGMTLEEIEELLKKEGIDPSTLGNEKIAEIIKKKNPNTTITSSPEGTGYISKSAGGSAGGSAG [r3_375_JUSTAS]”?
folding stability dG unfold [1]: 0.27 ± 0.18 kcal/mol; folding stability dG unfold [2]: < -1 kcal/mol

With “SAGGSAGGSAGMVFPVDGKEVVIDRGADDALRVTVFGPDGSASEAVFPGKDIPTVLKALSSAGGSAGGSAGG [r11_934_TrMRF]” as the sequence, how does the “folding stability dG unfold” value [1] read?
The value was -0.23 ± 0.24 kcal/mol.

And the “folding stability dG unfold” value [2]?
The value was less than -1 kcal/mol.

Which “folding stability dG unfold” value [1] does the source give for “SAGGSAGGSAGPEIRVDDLEDGVVRITTVNVDPSTGAPVATTTTTLPRESLSPEVVALLSSAGGSAGGSAGG [r11_376_JUSTAS]” here?
The value was 0.046 ± 0.038 kcal/mol.

What about the “folding stability dG unfold” value [2] of the same sequence?
Its value is less than -1 kcal/mol.

For “SAGGSAGGSAGPEIVLEGKPVELEVVEVGDKPVLIARFPDHYVVIDPEPDVIRLFSSEELSAGGSAGGSAGG [r11_9_TrMRF]”, which “folding stability dG unfold” value [1] is on record?
The value was -0.0154 ± 0.018 kcal/mol.

And the “folding stability dG unfold” value [2]?
The value was -0.449 ± 0.11 kcal/mol.

What does the source list for “SAGGSAGGSAGPKPIRIKVKWRNEKDGEKRKVTIPIPPGMPLEELIKNADPNQVRDVEIVSAGGSAGGSAGG [r11_386_TrROS]”?
folding stability dG unfold [1]: -0.276 ± 0.1 kcal/mol; folding stability dG unfold [2]: < -1 kcal/mol

For “SAGGSAGGSAGQPKIGVLKEELIKETYTRPVPDSDETVKEERIVVKIIKKKLNIPENLLLSAGGSAGGSAGG [r17_530_JUSTAS]”, which “folding stability dG unfold” value [1] is on record?
The value was -0.447 ± 0.27 kcal/mol.

And the “folding stability dG unfold” value [2]?
Its value is less than -1 kcal/mol.

For “SAGGSAGGSAGREEVEEAIRAGETVTLEEKSPEGVIPVITVRAEFPDPDKVLVETEVKPLSAGGSAGGSAGG [r11_710_JUSTAS]”, which “folding stability dG unfold” value [1] is on record?
Its value is 0.455 ± 0.083 kcal/mol.

What about the “folding stability dG unfold” value [2] of the same sequence?
The value was -0.646 ± 0.32 kcal/mol.

With “SAGGSAGGSAGSLPEKLKEAFPDLGVTVTSVDPSGTVTVEVDGPEEVKEKVEKAVAEILKSAGGSAGGSAGG [r11_418_JUSTAS]” as the sequence, how does the “folding stability dG unfold” value [1] read?
The value was -0.576 ± 0.33 kcal/mol.

And the “folding stability dG unfold” value [2]?
The value was less than -1 kcal/mol.

Which “folding stability dG unfold” value [1] does the source give for “SAGGSAGGSAGSPIPVEVKVTTFGPGGVPREAELLTGDPAAFEKAIGKPLPDGSKVEVLLSAGGSAGGSAGG [r11_671_JUSTAS]” here?
The value was -0.129 ± 0.083 kcal/mol.

And the “folding stability dG unfold” value [2]?
Its value is -0.955 ± 0.48 kcal/mol.

For “SAGGSAGGSAGSSLPPDARYTTKVTVKTPFSKTLSLSEYQKLPPSEIKGIEIEKEVVPVESAGGSAGGSAGG [r11_899_JUSTAS]”, which “folding stability dG unfold” value [1] is on record?
Its value is -0.198 ± 0.44 kcal/mol.

And the “folding stability dG unfold” value [2]?
Its value is -0.927 ± 0.92 kcal/mol.

For “SAGGSAGGSAGTTTKITEIKELPTDYVELTMKYPDGTTIKKLIPKSIYKDLPVSSTFSGGSAGGSAGGSAGG [r11_943_JUSTAS]”, which “folding stability dG unfold” value [1] is on record?
Its value is -0.0564 ± 0.14 kcal/mol.

And the “folding stability dG unfold” value [2]?
Its value is less than -1 kcal/mol.

What does the source list for “SAGGSAGGSAGVIEVPIEELENLPDDVKVVPTENTAVIYNEKNPIVVPKNEPVLIAPSDKSAGGSAGGSAGG [r17_91_TrMRF]”?
folding stability dG unfold [1]: 0.937 ± 0.051 kcal/mol; folding stability dG unfold [2]: < -1 kcal/mol

With “SAGGSAGGSAKKIDVEVDEPVPNGYYRATIRVPGPGKPIEVNVPGPWEDAERKAKELAKELSAGGSAGGSAG [r3_104_TrROS]” as the sequence, how does the “folding stability dG unfold” value [1] read?
Its value is -0.964 ± 0.55 kcal/mol.

And the “folding stability dG unfold” value [2]?
The value was less than -1 kcal/mol.

What does the source list for “SAGGSAGGSAKKTAVIELIDPKDPKPKTITIPFDLKDGKTSLEELKKLVPDYTITSIAVFDDSAGGSAGGSA [r18_494_TrMRF]”?
folding stability dG unfold [1]: -0.182 ± 0.15 kcal/mol; folding stability dG unfold [2]: < -1 kcal/mol

Which results are given for “SAGGSAGGSAKPLTVDEILKNLDFPPNMEIEDIEVDQDENEGKPVISIEMYSPGQPYRPTIVSAGGSAGGSA [r18_354_TrROS]”?
folding stability dG unfold [1]: -0.151 ± 0.042 kcal/mol; folding stability dG unfold [2]: < -1 kcal/mol

Which “folding stability dG unfold” value [1] does the source give for “SAGGSAGGSALSPDDVEPIDEEPFHNPGGNPMNIGIWKNPDDGKPFIRNPGNGNPFPADDLSAGGSAGGSAG [r3_181_TrROS]” here?
The value was -0.498 ± 0.12 kcal/mol.

And the “folding stability dG unfold” value [2]?
The value was less than -1 kcal/mol.

What does the source list for “SAGGSAGGSAMKEYVVASRGYDPATGLYSLTIESSEGKKVKNVTFDDPSNPEKAINEAIAKESAGGSAGGSA [r18_479_JUSTAS]”?
folding stability dG unfold [1]: -0.713 ± 0.34 kcal/mol; folding stability dG unfold [2]: -0.829 ± 0.35 kcal/mol

For “SAGGSAGGSAMTIQINNLPPEKIEEAADDHGIDTQRNEESDSYYIEMPPNDMDEIKEALGWSAGGSAGGSAG [r3_354_TrROS]”, which “folding stability dG unfold” value [1] is on record?
The value was 0.725 ± 0.052 kcal/mol.

And the “folding stability dG unfold” value [2]?
The value was 0.222 ± 0.17 kcal/mol.

What does the source list for “SAGGSAGGSAPIVRLEFGPVIPLPDMSPDELKEKTAELVPEEYREKIKIVSVLDPDNPKEISAGGSAGGSAG [r3_340_TrMRF]”?
folding stability dG unfold [1]: -0.269 ± 0.12 kcal/mol; folding stability dG unfold [2]: < -1 kcal/mol
